Test results reported in publication PMC6039445 (2018).

B1: H3v-47 Fab (Fab, V domains shown)
VH: QVQLVQSGAEVKKPGSSVRVSCKASGDTFSSYSITWVRQAPGHGLQWMGGIFPIFGSTNYAQKFDDRLTITTDDSSRTVYMELTSLRLEDTAVYYCARGASKVEPAAPAYSDAFDMWGQGTLVTVSS
VL: DIVMTQSPGTLSLSPGERATLSCRTSQGVSSSYLAWYQQKPGQAPRLLISGSSSRATGIPDRFSGSGSGRDFTLTISRLEPEDSAVYYCQQYATSPTFGQGTRVEIK
B2: H3v-47 IgG (antibody, V domains shown)
VH: B1 VH
VL: B1 VL

Legend:
Test in all cases: BLI
[1] = molecular target: A/Panama/2007/1999 H3N2 HA, soluble trimeric (influenza A virus A/Panama/2007/1999 …)
[2] = molecular target: HA of A/Brisbane/10/2007 (H3N2) virus (influenza A virus A/Brisbane/10/2007 …)
[3] = molecular target: A/Minnesota/11/2010 H3N2v HA, soluble, biotinylated (wild type) (influenza A virus A/Minnesota/11/2010 …)

Row | Binder | Kd [1] [nM] | Kd [2] [nM] | Kd [3] [nM]
1 | B1 | < 5 | < 5 | –
2 | B2 | – | – | < 0.001
